Experiment: soluble on expression in E. coli; label from the status in PepcDB or PDB records

Question: With “MQNSLLTQHIAQIIAAEISSQPTQARAAIALLDEGASVPFIARYRKEATGGLDDTQLRILETRLTYLRELEERRSTILTSITEQGKLNDLLHAEILAADTKSRLEDLYLPYKPKRRTRAQIAREAGLEPLADSLLADPTLIPETVAANFVDPEKGITDIKTALEGARAILIERWGEDAALIGELRQWLANNGVIHARLIDNKEDTGAKYRDYFNHTELLSKIPSHRLLALFRARSEEILHLDLDPGNDADAGHQYCESMVMQAACVADQGRPADTWLMTACRLTWRAKLHMHLMLDLFNQAREKAEAEAITVFSNNLKDLLLAAPAGPRIVLGIDPGIRTGCKIAIVDTTGKLIATETIYPHEPRREWDKSLHTLKTLCTQHHITLIAIGNGTASRETDKLVSDLIKAHPALELQKIVVSESGASVYSASESAAKEFPDLDVSLRGAVSIARRLQDPLAELVKIDPKAIGVGQYQHDVDQFHLAKALDARVEDCVNAVGVYVNTASAALLSRVSGLSASVAENITRYRDEHGSFKQRQDLLKVPRLGAKTFEQCAGFLRIADGNQPLDASAVHPEAYPVVERIVQTTGKPIKALIGDSHTLRMLKPEQFTDTNFGIPTIRDIIKELEKPGRDPRPEFKAVRFTEGVENIKDLKPGMILEGVVSNVAAFGAFVDIGVHQDGLIHISALADRFVKDPRDIVKAGDIVKVKVLEIDVPRKRIALTCRLHEETPPETPVANRTGNERGRPNPVAKKVKATPTDNALAQAFARARLK” as the sequence, how does the “soluble on expression in E. coli” value read?
Answer: soluble

Question: For “MNPLLQDYARILLEWNQTHNLSGAKNLSELEPQITDALKPLEFIKDFKSCLDIGSGAGLPAIPLALEKPEVKFILLEPRIKRAAFLNYLKSVLPLKNIEIIKKRLEDYQNLLQVDLITSRAVASSSFLIEKSQRFLKDKGYFLFYKGEQLKDEIACKDTECFMHQKRVYFYKSKESLCLEHHHHHH”, which “soluble on expression in E. coli” value is on record?
Answer: soluble

Question: With “MSLEDKDLRSIQEVRNLIESANKAQKELAAMSQQQIDTIVKAIADAGYGAREKLAKMAHEETGFGIWQDKVIKNVFASKHVYNYIKDMKTIGMLKEDNEKKVMEVAVPLGVVAGLIPSTNPTSTVIYKTLISIKAGNSIVFSPHPNALKAILETVRIISEAAEKAGCPKGAISCMTVPTIQGTDQLMKHKDTAVILATGGSAMVKAAYSSGTPAIGVGPGNGPAFIERSANIPRAVKHILDSKTFDNGTICASEQSVVVERVNKEAVIAEFRKQGAHFLSDAEAVQLGKFILRPNGSMNPAIVGKSVQHIANLAGLTVPADARVLIAEETKVGAKIPYSREKLAPILAFYTAETWQEACELSMDILYHEGAGHTLIIHSEDKEIIREFALKKPVSRLLVNTPGALGGIGATTNLVPALTLGCGAVGGSSSSDNIGPENLFNIRRIATGVLELEDIRKEENQATSELPVDADALIQSLVEKVLAELKEGHHHHHH” as the sequence, how does the “soluble on expression in E. coli” value read?
Answer: soluble

Question: With “MSLNEHDIYMQDFMTVFASLQHWGPGSEQDSLKAISLMSMQNMQHILDIGCETGLSTLLLAENSSAHITAVDNEPIAIEQLEKQRQHSPWKEQISPVLGSMTALPFAAKSFDAIWAEGCVYIMGMENALKQWKPFLADNAILMVSDLVWLTENPKPEAQEFWQSEYPDIQSIPSRIKLFKKLGYEVMEHFSLGIDAWQNYWLPLQNRVQELKLRLTNSQALSDIEKEIAIYERSAAKDFTYQYFVLKLNHEGHHHHHH” as the sequence, how does the “soluble on expression in E. coli” value read?
Answer: not soluble

Question: Which “soluble on expression in E. coli” value does the source give for “MALKKHNVFVFSSNYTLYGDMSQRVMNTLAEFTPEIEVYSIDESFLNFEGFELLGDLKIYGTTIRNTVFRNTGIPVSIGIAPTKALAKLSNRIAKKNKEYNHVCVLEHHHHHH” here?
Answer: not soluble

Question: With “MYDVVGVRFKKAGKVYYFDPNQFDISENEFVIVETVRGIEYGKVVITKKQVDENDVVLPLKKVIRIANENDRTIVEENKHAAKEAYQVCQQKVVEHNLDMKLVDVEYTFDRNKIIFYFTADGRIDFRELVKDLAAIFRTRIELRQIGVRDEAKMLGGIGPCGRMLCCSTFLGDFEPVSIKMAKDQNLSLNPAKISGLCGRLMCCLKYENDEYEAAKEQLPDLDQRIQTPHGTGRVIGLNILERLIQVELVDKERIVEYTLDELVNKGVVSSQTTDLEHHHHHH” as the sequence, how does the “soluble on expression in E. coli” value read?
Answer: not soluble

Question: For “MKNLIAELLFKLAQKEEESKELCAQVEALEIIVTAMLRNMAQNDQQRLIDQVEGALYEVKPDASIPDDDTELLRDYVKKLLKHPCQ”, which “soluble on expression in E. coli” value is on record?
Answer: not soluble

Question: For “MQDSRPHPHDWNVSTDEAKRIQRRLASEVTERALPDGGETVAGIDVSVRDDTAQAAVSVLRLPELDVVDEATHRCEVPFPYVPGLLSFREMPAVLPALERLHSTPDVFVTDSHGAAHPRRFGLACHLGVLLDAPAIGVAKSILVGAPQGELGPEKGSRVPLVDDGETVGTVLRTRTDVNPVYVSVGHRCTLDGAADLMLDCSPRYKIPEPTRQAHKLSRAEGAAALEHHHHHH”, which “soluble on expression in E. coli” value is on record?
Answer: soluble

Question: Which “soluble on expression in E. coli” value does the source give for “AIASARVRSRSRGRGDGQEAPDVVAFVAPGESQQEEPPTDNQDIEPGQEREGTPPIEERKVEGDCQEMDLEKTRSERGDGSDVKEKTPPNPKHAKTKEAGDGQP” here?
Answer: soluble

Question: With “MGSDKIHHHHHHMATDASGGVGEKAKDHVHVPYEVVSYYAARVALLECMSVGATPFTFLVQNFSGDEPYQKMIDGINRALGEANQAQATIAGSTESNMVLEQSCLGVTVIGRVHQSALKIGITPKDAGIALLGKPLVGEEVVSQEKDVFPLKQFDELLQEEGVYEIIPVGSKGVKYELEVLAATNEWNTLQVPVNGNVDLTKSSGPATSLLITFDGTMEALLKAKYSSWWTTLASKIST” as the sequence, how does the “soluble on expression in E. coli” value read?
Answer: not soluble

Question: For “MSDALLAPLNEAQRQAVLHFEGPALVVAGAGSGKTRTVVHRVAYLVARRGVFPSEILAVTFTNKAAEEMRERLRGLVPGAGEVWVSTFHAAALRILRVYGERVGLRPGFVVYDEDDQTALLKEVLKELALSARPGPIKALLDRAKNRGVGLKALLGELPEYYAGLSRGRLGDVLVRYQEALKAQGALDFGDILLYALRLLEEDEEVLRLVRKRARFIHVDEYQDTSPVQYRFTRLLAGEEANLMAVGDPDQGIYSFRAADIKNILDFTRDYPEARVYRLEENYRSTEAILRFANAVIVKNALRLEKALRPVKRGGEPVRLYRAEDAREEARFVAEEIARLGPPWDRYAVLYRTNAQSRLLEQALAGRGIPARVVGGVGFFERAEVKDLLAYARLALNPLDAVSLKRVLNTPPRGIGPATWARVQLLAQEKGLPPWEALKEAARTFSRPEPLRHFVALVEELQDLVFGPAEAFFRHLLEATDYPAYLREAYPEDAEDRLENVEELLRAAKEAEDLQDFLDRVALTAKAEEPAEAEGRVALMTLHNAKGLEFPVVFLVGVEEGLLPHRNSVSTLEGLEEERRLFYVGITRAQERLYLSHAEEREVYGRREPARPSRFLEEVEEGLYEVYDPYRRPPSPPPHRPRPGAFRGGERVVHPRFGPGTVVAAQGDEVTVHFEGFGLKRLSLKYAELKPA”, which “soluble on expression in E. coli” value is on record?
Answer: soluble

Question: For “MGSDKIHHHHHHMKVVKFGGSSLATGNNVNKALNIIKNDSSRQVIVVSAPGKRTDDDIKVTDLLITYAYTSLRSNNYDDTVEKIFRRYELIAQYFDLPESDLTKIKRLLLTLPTYDYPNADYRMATFKAHGERLNAILIAKILNHQGIKTRYLEPKDVGLIVTGTPNNAEVNPETYVNLKRINLKNNEKIIFPGFYGITPSGHIATFSRGGSDITGAILARGFDAELYENFTDVDAIFSANPNIVTNPAPIKKMTYQEMRELSYAGFSVFHDEALIPAIQGEIPVNVKNTNDPEKPGTLIVPEDGFIPKHTITGIAGGKNFAALYLRKYMLNKGAGFTLKLMEIFDRHHVSYEHMPSGIDDLTIIFKKDALSDQLIDVICNEIQTSLNPDQMQWIDDYAITMVVGEGMKDKLTLCASILYPLGEKNISIQMINQGASQISIMIGTRRQDEEEVIKTIYQNFIENR”, which “soluble on expression in E. coli” value is on record?
Answer: not soluble

Question: For “MSLDTHSLRFSKEGTFQITVFSDLHFAEYENTAQGAKQDSRTAGVVRKVLQHEASTQLVVLNGDLISGYGTTSDNATRYLDQVLAPIQALGLPWAVTYGNHDNERFARSRELLDYESRTYPNYSLTRNMGPRDLEAGVSNYYLEVFAAETSHVPEMLLWFFDSRGGAQPHDWVHDSVVQWFIDTNANLTNKYNKAVPSIAFFHIPITATYDFQLYPGVDTSREPGINGEKVWWQGRGYDGKTGHDLKFMAALSATEGMLATFSGHDHDNDWCFKWKSPSATSSSAGLNVCYGRHTGYGGYGGLARGARQILLKQSTIKDEVATWIRLEDGLVPENVTLNATYGQDEEGHHHHHH”, which “soluble on expression in E. coli” value is on record?
Answer: not soluble

Question: Which “soluble on expression in E. coli” value does the source give for “MLSPLAKANLCLNLFGFFKVPLIWACRPKILSLNDQAVEVRIPLKRRNKNHLNSMYFGVLAVGADVAGGYMAMHKANQRGKSVSLAFKSVRGEFHKRPEAAVHFHCVEGEKIDRMLDETARTGERVNQEVHIIATCPTLHGDEPMAEFWLTLSLKIVKLEHHHHHH” here?
Answer: soluble

Question: With “MKMKDELINLIINEGCIKFGHFVLTSGKESNYYIDIKSLITNPKALRIIAKLIKEKAEELNLNYDKIAGPELGAVPIATALSLETNKPLLIVRKKKKEHGTGKVIEGNVQKGDKVLLVEDVTTTGGSVIRAAKILREHGADVVGIFVVVDREEGAKENIEKEGFKFYPLVLVSELFKAAGISKDQS” as the sequence, how does the “soluble on expression in E. coli” value read?
Answer: soluble

Question: For “MSLAQVEQVIQVGHLLDVRTGNYQKNKAILVEAGRISAIVDADQAPKNVQVIDLSTHYVVPGLIDMHVHLTSDPQKHGYRGLVETPTREAIFGVSAAKATLKAGFTTVRNLGAAGFADVSLRDAIDDGEIQGPRMRVAANTICITGGHCDNNLLPHIYNSRSAGVANGPDEVRAKVRENIKYGADVIKFAATGGVLSKNTDVNASQYNFEEMKALIDEAHDRGRIVAAHAHGLQGIKRAIEAGVDSIEHGSFIDDDAIKLAKKHGTYLVMDVYVSDYILSEGEKAGILPESLAKEKKVGLLQRQNFQKAVKAGVKMAYGTDAGVYTHGLNGRQFAYMVQWGMTPLQAIQAATVNAGTLLNWKNEQGQQNVGVLEVGAFADLVAVPVDPLTQEGHHHHHH”, which “soluble on expression in E. coli” value is on record?
Answer: soluble

Question: Which “soluble on expression in E. coli” value does the source give for “MSLEHPLQRFFHSMRAKRPFDWVRFQRRDLLLIDHPLCQAVFSRQGAQLLHFQPQGERPLLWCAGEWPALSSAPVRGGIPVCWPWFGSHPNGSEWPQQGWARQREWRLLDAYADESKVVVSWQLDLEDWHVRLDARLGQRLELELCSYHEEDDDCLFSFALQPYWRVGALSRVVVHGMELESARGQRGASRIPGTWIPRGAVKQVLYHPGSLVLEDGGWNRRLRIDKNVSAGSVIWHPGSRPVEQVEPGEAERFLCIGAAGYRPGGLILAPGERMRLSLAAGLQEGHHHHHH” here?
Answer: soluble

Question: For “NYGMVPFAGIPYYACPFGRDSIITSWFLLPYYPQYAEGTLKFFAKIQGKKFNPLNEEEPGKIPHEFRFGELSHSRKMPFAPYYGTVDATPLYVILAAEYLRWTGDRELIERLKPNLTAAVEWILRRLDEGGGYIRYKGGLLANQGWKDSKEGIPTEEGTPTKPPVALVEVQGYAYKALMDAASLGLTSLDPKMLKKEAEELKKRFNKDFWCDGFYALALDGDNVPSKVVSSNMGHLLFTGIAEHQEKIAERLFEEDMFSGWGIRTLSSKEKAYNPFSYHNGSIWPHDNAVIAIGLASIGEKEKARMLAEAIFKTAKFLPNSQLPELFSGLESEYPLLCPRANAPQAWSAASVFALLTALLGLKA”, which “soluble on expression in E. coli” value is on record?
Answer: not soluble

Question: For “GSHMDASKIDQPDLAEVANASLDKKQVIGRISIPSVSLELPVLKSSTEKNLLSGAATVKENQVMGKGNYALAGHNMSKKGVLFSDIASLKKGDKIYLYDNENEYEYAVTGVSEVTPDKWEVVEDHGKDEITLITCVSVKDNSKRYVVAGDLVGTKAKK”, which “soluble on expression in E. coli” value is on record?
Answer: soluble

Question: For “MLSEERVKELLKKLKDLKILVVGDVILDTYLYGNVERISPEAPVPVLEVEGEEFRLGGAGNVAKNLSSLGVETYLCGVVGKDEAGKRLRELIEGNSIRSFLIEDERPTTKKTRVVSRNQQLLRIDWEDRSYISGKALEKILDVIKNLQVDGIIVSDYAKGVITEEVIKTIREKGVFYSVDPRPKHRELYRKAYLMTPNEKELREMSKFEGSVEELGKKLKEELELETLIVTRGEKGMSLFTEKGVKHFPARARKVYDVTGAGDTVIASITAFKLAGATWEECCELGNVCGGIVVGEFGTATVTPEKLLKAVKLNS”, which “soluble on expression in E. coli” value is on record?
Answer: not soluble

Reference: the DeepSol protein solubility set
